Measured values reported in US20030175730, “Multivalent RNA aptamers and their expression in multicellular organisms” (published 2003).

Experiments:
[1] = molecular target: T1, B52 (SRp55) full length (Drosophila melanogaster, UniProt P26686 P26686:1-350); assay: EMSA; 1:1; 50 mM Tris pH 7.6, 200 mM KOAc, 5 mM MgCl2, excess tRNA, gel 4 C; settings: tags: baculovirus/Sf9 expressed, SR protein purification; label: 32P-UTP; hairpin
Method: (§1) All binding assays were performed in 20 μl volume in 1× binding buffer described above. A typical binding assay using labeled RNA contains about 20 finole of ³²P-labeled RNA probe and differing amounts (1-10 pmole) of B52 protein. A typical binding assay using the truncated versions of B52 contains 1 μl of the ³⁵S-labeled translation reaction mixture with 2 pmoles of unlabeled RNA transcript (the final concentration of RNAs in this reaction was 100 nM and concentration of the labeled B52 proteins was much lower). The reactions were allowed to equilibrate for 15-20 minutes at ambient temperature before being subjected to filter binding, gel shift, or UV crosslinking.
(§2) When individual RNA's transcribed from cloned sequences were tested by filter binding assay the BBS RNA's were all able to bind B52 to generate signals that were 20 times the background produced by RNA's from the unselected pools. […] After cloning the selected sequences, RNA transcripts without most of the 3′ constant region were made by cutting the template with the restriction endonuclease Scal. […] The band shift assay was first performed with these sequences. Two sequences randomly picked from the original unselected pool were used as controls. Increasing amounts of B52 were added to ³²P-labeled RNA probes, which contain the 5′ constant region, in the presence of a large excess of tRNA. […]

[2] = molecular target: T1, B52 (SRp55) full length; assay: EMSA; strong binder; both conserved flanking Gs; settings: tags: baculovirus/Sf9 expressed, SR protein purification; label: 32P-UTP; hairpin
Method: as §1
(§3) To determine the sequence/structure requirements for binding by B52, deletion and substitution mutations, and antisense constructs of BBS were designed in light of the shared sequence motif and predicted secondary structures (FIG. 4). These short RNA transcripts were produced by in vitro transcription of synthetic templates, and their affinity to B52 was assayed by band shift.

[3] = molecular target: T1, B52 (SRp55) full length; assay: EMSA; antisense does not bind; settings: tags: baculovirus/Sf9 expressed, SR protein purification, label: 32P-UTP
Method: as §1, §3

[4] = molecular target: T1, B52 (SRp55) full length; assay: EMSA; consensus trapped in duplex loses binding; settings: tags: baculovirus/Sf9 expressed, SR protein purification; label: 32P-UTP; hairpin, BBS consensus paired with its antisense via UUCG tetraloop
Method: as §1, §3

[5] = molecular target: T1, B52 (SRp55) full length; assay: EMSA; pentavalent vs monovalent; single-unit ribozyme-cleaved transcript tested in FIG. 9A; settings: tags: baculovirus/Sf9 expressed, SR protein purification; multivalent, five BBS hairpins closed by S35 stem
Method: (§4) Gel shifts were performed at 4° C. The binding reaction mixtures were set at 4° C. for 5-10 minutes before being loaded onto a 2.5% agarose gel in ¼ TBE buffer. The avidity of the pentavalent RNA aptamer to B52 was examined on longer agarose gels (25 cm) to improve the resolution of RNA bands. The affinity of the RNA for the in vitro translated polypeptides was estimated by comparing the intensity of the bands representing the complex on the agarose gel and that of the corresponding polypeptides run on SDS-PAGE. To crosslink proteins to RNA, the binding reaction mixtures were irradiated for 20 minutes from 5 cm directly above by inverting a short-wavelength UV trans-illuminator. The products of crosslinking were analyzed using standard SDS-PAGE.
Fragment C, which contains no binding site, served as an internal loading control in a band shift assay to assess the avidity of the pentavalent construct. During the transcription reaction, the extent of self-cleavage reached about 90% (FIG. 9A, Lane 1). […] The multivalent RNA aptamers bound B52 10-fold more avidly than the individual monovalent RNA aptamers, as shown here compared to the strong-binding primary aptamer BBS #14 (Lanes 2-4 vs. Lanes 6-8, FIG. 9A). […]

[6] = molecular target: B52 RRM1 (R1) (Drosophila melanogaster, UniProt P26686 P26686:4-74); assay: EMSA; no band; not UV-crosslinked; not complemented by R2S in trans; settings: tags: 35S-Met, reticulocyte lysate; hairpin
Chain of B52 RRM1 (R1) (P26686 4-74, one chain of several): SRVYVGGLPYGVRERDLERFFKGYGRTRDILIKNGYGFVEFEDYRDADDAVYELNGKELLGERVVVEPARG
Method: as §4
(§5) BBS RNAs were selected for their ability to bind full length B52 protein. It is possible that B52 binds RNA through either one or the other RRMs, the SR domain, or a combination of these domains. To identify the specific RNA-binding site on B52, a set of ³⁵S-methionine labeled B52 deletion constructs were prepared by in vitro translation and then tested for their ability to bind the selected BBS #8 RNA in two different assays (FIG. 6A). […]
(§6) To confirm the requirements of both RRMs for binding, these binding reactions were repeated and the reaction mixtures were subjected to UV irradiation. The UV-crosslinked species were then analyzed on SDS-PAGE. […]

[7] = molecular target: B52 RRM1+RRM2 (R12) (Drosophila melanogaster, UniProt P26686 P26686:4-188); assay: EMSA; affinity comparable to baculovirus B52; also UV-crosslinked; settings: tags: 35S-Met, reticulocyte lysate; hairpin
Chain of B52 RRM1+RRM2 (R12) (P26686 other isoform, or with tags, fused parts or gaps): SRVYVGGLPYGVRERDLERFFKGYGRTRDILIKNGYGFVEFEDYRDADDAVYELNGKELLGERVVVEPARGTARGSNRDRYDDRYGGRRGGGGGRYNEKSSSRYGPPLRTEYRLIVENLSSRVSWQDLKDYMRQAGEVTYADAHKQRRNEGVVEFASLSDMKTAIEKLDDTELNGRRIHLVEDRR
Method: as §4, §5, §6

[8] = molecular target: T2, RBP1 (SR protein) (UniProt Q02427 Q02427:1-144); assay: no measurable affinity for BBS RNAs; individual BBS and method not specified; settings: hairpin
T2 sequence: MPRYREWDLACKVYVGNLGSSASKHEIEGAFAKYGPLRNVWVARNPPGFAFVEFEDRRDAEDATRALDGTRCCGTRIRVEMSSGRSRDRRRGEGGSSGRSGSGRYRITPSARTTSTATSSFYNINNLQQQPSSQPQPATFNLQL

[9] = molecular target: T3, HSF (heat shock factor) (UniProt P22813 P22813:1-691); assay: as above; settings: hairpin
T3 sequence: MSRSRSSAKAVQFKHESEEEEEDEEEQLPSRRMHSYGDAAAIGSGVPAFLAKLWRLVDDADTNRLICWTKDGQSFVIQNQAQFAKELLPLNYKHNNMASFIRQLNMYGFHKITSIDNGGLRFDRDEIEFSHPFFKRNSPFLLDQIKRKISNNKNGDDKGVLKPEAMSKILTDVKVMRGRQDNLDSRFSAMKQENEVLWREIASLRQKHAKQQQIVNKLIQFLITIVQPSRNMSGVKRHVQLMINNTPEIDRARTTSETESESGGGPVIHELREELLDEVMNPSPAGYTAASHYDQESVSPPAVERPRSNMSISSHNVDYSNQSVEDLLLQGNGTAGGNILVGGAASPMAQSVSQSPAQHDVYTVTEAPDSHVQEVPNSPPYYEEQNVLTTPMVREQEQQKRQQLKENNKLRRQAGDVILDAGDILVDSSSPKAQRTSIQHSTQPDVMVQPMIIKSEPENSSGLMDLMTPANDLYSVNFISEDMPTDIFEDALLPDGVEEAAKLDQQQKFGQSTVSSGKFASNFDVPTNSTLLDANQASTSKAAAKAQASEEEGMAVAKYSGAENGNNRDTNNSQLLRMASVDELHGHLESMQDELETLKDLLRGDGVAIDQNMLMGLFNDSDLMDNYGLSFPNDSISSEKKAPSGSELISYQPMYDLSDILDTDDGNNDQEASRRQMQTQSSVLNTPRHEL

[10] = molecular target: B52 full length (F) (Drosophila melanogaster, UniProt P26686 P26686:1-350); assay: EMSA; 100 nM RNA; affinity comparable to baculovirus B52; settings: tags: 35S-Met, reticulocyte lysate; hairpin
Chain of B52 full length (F) (P26686 other isoform, or with tags, fused parts or gaps): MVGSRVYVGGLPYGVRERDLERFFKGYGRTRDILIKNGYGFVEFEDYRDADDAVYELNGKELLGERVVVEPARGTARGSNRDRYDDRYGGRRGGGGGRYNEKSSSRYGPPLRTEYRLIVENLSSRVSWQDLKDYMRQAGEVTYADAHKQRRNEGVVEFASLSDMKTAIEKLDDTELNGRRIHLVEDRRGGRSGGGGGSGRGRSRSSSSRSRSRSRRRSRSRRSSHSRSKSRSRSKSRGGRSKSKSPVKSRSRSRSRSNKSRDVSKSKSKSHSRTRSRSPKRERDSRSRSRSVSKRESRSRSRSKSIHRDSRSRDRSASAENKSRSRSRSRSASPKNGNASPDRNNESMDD
Method: as §1
(§7) BBS RNAs were selected for their ability to bind full length B52 protein. It is possible that B52 binds RNA through either one or the other RRMs, the SR domain, or a combination of these domains. To identify the specific RNA-binding site on B52, a set of ³⁵S-methionine labeled B52 deletion constructs were prepared by in vitro translation and then tested for their ability to bind the selected BBS #8 RNA in two different assays (FIG. 6A). These polypeptides also serve as a second source of target proteins in binding assays to confirm the specificity of binding to the selected BBS RNA.

[11] = molecular target: B52 RRM2+SR domain (R2S) (Drosophila melanogaster, UniProt P26686 P26686:115-350); assay: EMSA; 100 nM RNA, no discrete band; settings: tags: 35S-Met, reticulocyte lysate; hairpin
Chain of B52 RRM2+SR domain (R2S) (P26686 other isoform, or with tags, fused parts or gaps): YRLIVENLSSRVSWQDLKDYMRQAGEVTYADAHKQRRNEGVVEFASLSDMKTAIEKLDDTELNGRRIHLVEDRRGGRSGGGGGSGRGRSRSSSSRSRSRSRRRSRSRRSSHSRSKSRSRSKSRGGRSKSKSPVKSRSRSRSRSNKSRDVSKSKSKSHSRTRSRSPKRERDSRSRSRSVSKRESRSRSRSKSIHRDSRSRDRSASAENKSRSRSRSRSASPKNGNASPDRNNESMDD
Method: as §4, §7

[12] = molecular target: B52 SR domain (S) (Drosophila melanogaster, UniProt P26686 P26686:189-350); assay: EMSA; 100 nM RNA, no discrete band; settings: tags: 35S-Met, reticulocyte lysate; hairpin
Chain of B52 SR domain (S) (P26686 other isoform, or with tags, fused parts or gaps): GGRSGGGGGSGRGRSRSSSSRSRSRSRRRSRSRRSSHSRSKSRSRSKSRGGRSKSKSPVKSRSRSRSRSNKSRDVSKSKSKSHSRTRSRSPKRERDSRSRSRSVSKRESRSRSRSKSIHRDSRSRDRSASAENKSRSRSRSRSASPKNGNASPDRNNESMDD
Method: as §4, §7

[13] = molecular target: T1, B52 (SRp55) full length; assay: filter; signal 20x background of unselected pool; settings: tags: baculovirus/Sf9 expressed, SR protein purification; hairpin
Method: as §1, §2

[14] = molecular target: T1, B52 (SRp55) full length; assay: EMSA; full binding activity; settings: tags: baculovirus/Sf9 expressed, SR protein purification; label: 32P-UTP; hairpin with unfolded 3' tail
Method: as §1, §3

[15] = molecular target: T1, B52 (SRp55) full length; assay: EMSA; fully active; settings: tags: baculovirus/Sf9 expressed, SR protein purification; label: 32P-UTP; hairpin
Method: as §1, §3

[16] = molecular target: T1, B52 (SRp55) full length; assay: EMSA; binding not compromised; settings: tags: baculovirus/Sf9 expressed, SR protein purification; label: 32P-UTP; hairpin
Method: as §1, §3

[17] = molecular target: T1, B52 (SRp55) full length; assay: EMSA; binds as well as BBS-I; settings: tags: baculovirus/Sf9 expressed, SR protein purification; label: 32P-UTP; hairpin with internal loop
Method: as §1, §3

B1: BBS #8 ScaI-trimmed (ssRNA)
RNA: GGGAGAAUUCAACUGCCAUCUAGGCUGGUCAACCAGGCGACCGCCACCCGCGCGCGCAAUACCUAGU
Kd [1]: ~0.02 µM

B2: BBS #14 ScaI-trimmed (ssRNA)
RNA: GGGAGAAUUCAACUGCCAUCUAGGCAGGGUAACGAUCAACCUGGCGACAGCUGCCCUGCCGUCCAAGU
Kd [1]: ~0.05 µM

GGACGGUCAACCAGGCGACCGU (ssRNA) [bbs-II/3'Stem]
binding result [2]: binds

GGCGGUCGCCUGGUUGACCAGCC (ssRNA) [AntiBBS-I]
binding result ([3]; hairpin): no binding

GGACUGUCGCCUGGUUGAUCGU (ssRNA) [AntiBBS-II]
binding result [3]: no binding

GGUCGCCUGGUUGAUCUUCGGAUCAACCAGGCGACA (ssRNA) [UUCG/BBS]
binding result [4]: no binding

B3: mature pentavalent BBS(5) aptamer (ssRNA)
RNA: GCGGCCGCCUCCGCGGCCGCCUGAUGAGUCCGUGAGGACGAAACAUGCAUGUCGAGAGUACGAUCAACCAGGCGACAGUACUCUCGACGAUCAACCAGGCGACAGUGGCUGGUCAACCAGGCGACCGCCACUGCAGGGUAACGGUCAACCAGGCGACCGUUACCCGGACGGUCAACCAGGCGACCGUUGACUUCGGUCAGUCGAGAUGCAUGUC
binding signal [5]: 10 fold more avid than BBS #14

B4: BBS #8 (ssRNA)
RNA: GGGAGAAUUCAACUGCCAUCUAGGCUGGUCAACCAGGCGACCGCCACCCGCGCGCGCAAUACCUAGUACUACAAGCUUCUGGACUCGGU
binding result [6]: no binding | binding result [7]: binds | binding result [8]: no binding | binding result [9]: no binding | binding result [10]: binds | binding result [11]: no binding | binding result [12]: no binding

B5: BBS #23 (ssRNA)
RNA: GGGAGAAUUCAACUGCCAUCUAGGCCCAACUGCUAAGAAGCAUCCUGUACGAUCAACCCGGCGACAGUACUACAAGCUUCUGGACUCGGU
binding result [13]: binds

GGCUGGUCAACCAGGCGACCGCCACCCGCGCGC (ssRNA) [BBS-I/Long]
binding signal [14]: 1 fold of BBS #8

GGCUGGUCAACCAGGCGACCGCC (ssRNA) [BBS-I]
binding signal [15]: 1 fold of BBS #8

GGCGGUCAACCAGGCGACCGCC (ssRNA) [BBS-I/NoBulge]
binding result [16]: binds

GGGUACGAUCAACCAGGCGACAGUACCC (ssRNA) [BBS-II]
binding result [17]: binds
